# Laboratory results reported in publication PMC3602377, “Steady-State NTPase Activity of Dengue Virus NS3: Number of Catalytic Sites, Nucleotide Specificity and Activation by ssRNA”.
# Biological target: NS3h (NS3 helicase domain) (Dengue virus serotype 2 (cDNA of …, UniProt O09234 1646-2093))
# Assay: fluorescence intensity titration (ex 495 nm, em 525-570 nm), 1:1 single-site fit; 1.5 mM free Mg2+; no ATP stated; constant printed as 'K' in nM, subscript lost, read as Kd
# Details: protein: recombinant; tags: N-terminal His6 (pET-28a); label: 5'-fluorescein
binder,measurement,value
AGUUGAGUUG (ssRNA) [fluorescein-labeled 10-nt ssRNA],Kd,0.75 ± 0.08 nM
